Earlier results on one molecule are cited in patent US20060182683A1, “Methods for reduced renal uptake of protein conjugates” (Center for Molecular Medicine and Immunology, priority 1995, published 2006).

The subject of data set [1] is rats. The settings on record: dose range 0.01-0.02 mg/kg; cited from earlier work.
In data set [2] the test system is Xenopus oocytes. The settings on record: microinjected into Xenopus oocytes; read-out: IC50, inhibition of protein synthesis; cited from earlier work.
The subject of data set [3] is dogs. Conditions: 0.005-0.15 mg/kg; cited from earlier work.
For data set [4], the system named is M109 Madison lung carcinoma. Conditions: cited from earlier work.
The target of data set [5] is T1, mammalian placental ribonuclease inhibitor (Homo sapiens, UniProt P13489).
T1 sequence (P13489 1-461): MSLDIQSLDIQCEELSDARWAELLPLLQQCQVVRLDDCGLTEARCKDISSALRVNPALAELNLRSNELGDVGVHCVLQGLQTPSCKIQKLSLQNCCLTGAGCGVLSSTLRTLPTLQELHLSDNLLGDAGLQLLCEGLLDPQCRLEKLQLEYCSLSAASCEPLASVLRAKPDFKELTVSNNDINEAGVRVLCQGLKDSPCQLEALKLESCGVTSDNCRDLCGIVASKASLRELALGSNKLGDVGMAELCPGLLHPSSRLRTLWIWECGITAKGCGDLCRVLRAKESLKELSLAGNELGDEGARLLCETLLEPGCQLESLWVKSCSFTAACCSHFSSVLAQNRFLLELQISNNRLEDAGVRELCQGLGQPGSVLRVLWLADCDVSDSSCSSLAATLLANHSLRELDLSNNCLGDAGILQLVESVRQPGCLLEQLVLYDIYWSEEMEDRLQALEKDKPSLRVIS
Conditions: cited from earlier work.

Data set [6] has as its system patients suffering from a variety of relapsing and resistant tumors. Conditions: intravenous; mainly due to renal toxicity; cited from earlier work.
For data set [7], the system named is protein synthesis in a rabbit reticulocyte lysate. The settings on record: read-out: IC50, inhibition of protein synthesis; cited from earlier work.

B1: ranpirnase (protein, UniProt P22069 1-104, looked up)
Protein P-30: QDWLTFQKKHITNTRDVDCDNIMSTNLFHCKDKNTFIYSRPEPVKAICKGIIASKNVLTTSEFYLSDCNVTSRPCKYKLKKSTNKFCVTCENQAPVHFVGVGSC
notes: non-mammalian ribonuclease (RNAse), molecular weight 12,000, purified from Rana pipiens oocytes and early embryos
In general, IC50 refers to the concentration needed to halve the response being measured. For B1, the toxicity entry is “predictable, dose-dependent and reversible toxicity” in data set [1]; “predictable, dose-dependent and reversible toxicity” in data set [3]. Further, the IC50 is 0.1 nM in data set [2] and 0.01 nM in data set [7]. Further, the survival entry in data set [4] (daily and weekly schedules, intraperitoneal) is on record as “significantly prolonged survival”. Moreover, the “animals surviving long-term, apparently cured” value in data set [4] (weekly schedule) is reported as “six of eighteen”. For the same molecule, the “inhibition by mammalian placental ribonuclease inhibitor” value in data set [5] was “not inhibited”. For the same molecule, the maximum tolerated dose in data set [6] was 960 μg/m^2.
